Sequences and labels used below:
B1: Tetrahymena histone H3 peptide, amino acids 1-19, tri-methylated at lysine 4, C-terminally biotinylated (peptide, UniProt P69150 2-20, looked up)
peptide: ART[Lys(Me3)]QTARKSTGAKAPRKQ-{PEG-biotin}
modifications: reading uncertain
notes: histone H3, Tetrahymena, amino acids 1-19; That the K4me3 peptide is the 1-19 peptide follows from the position of the residue; also called H3K4me3 peptide; source: synthetic peptide
B2: Tetrahymena histone H3 peptide, amino acids 1-19, tri-methylated at lysine 9, C-terminally biotinylated (peptide, UniProt P69150 2-20, looked up)
peptide: ARTKQTARKSTGAKAPRKQ
modifications: tri-methylated lysine 9; biotin at the C-terminus with a PEG linker
notes: histone H3, Tetrahymena, amino acids 1-19; also called H3K9me3 peptide; source: synthetic peptide
B3: Tetrahymena histone H3 peptide, amino acids 16-35, tri-methylated at lysine 27, C-terminally biotinylated (peptide, UniProt P69150 17-36, looked up)
peptide: PRKQLASKAAR[Lys(Me3)]SAPATGGI-{PEG-biotin}
modifications: reading uncertain
notes: histone H3, Tetrahymena, amino acids 16-35; also called H3K27me3 peptide; source: synthetic peptide
B4: Tetrahymena histone H3 peptide, amino acids 16-35, unmodified, C-terminally biotinylated (peptide, UniProt P69150 17-36, looked up)
peptide: PRKQLASKAARKSAPATGGI-{PEG-biotin}
modifications: reading uncertain
notes: histone H3, Tetrahymena, amino acids 16-35; also called unmodified peptide (16-35); source: synthetic peptide
B5: Tetrahymena histone H3 peptide, amino acids 1-19, unmodified, C-terminally biotinylated (peptide, UniProt P69150 2-20, looked up)
peptide: ARTKQTARKSTGAKAPRKQ-{PEG-biotin}
modifications: reading uncertain
notes: histone H3, Tetrahymena, amino acids 1-19; also called unmodified peptide (1-19); source: synthetic peptide

Where no end group is shown, it is not given here. [ ]: non-standard residue; d: D form. Lys(Me3) = C[N+](C)(C)CCCC[C@H](N)C(=O)O; PEG = not defined here

The target of the test is T1, MBP-tagged cysteine-rich domain (566 aa-657 aa) of Tpb2p, MBP-Tpb2p-CRD (WT) (Tetrahymena thermophila, UniProt D2Z1K6 566-657).
T1 construct: Tpb2p (Tetrahymena piggyBac-like transposase 2), cysteine-rich domain, aa 566-657; amplified from a codon-optimized TPB2 coding region in pMAL-TPB2; Cloned in pMalC2X, which is expected to put MBP at the N-terminus (surmise); also called cysteine-rich domain of Tpb2p; source: E. coli BL21(DE3), purified (Amylose resin, maltose elution, dialysis)
T1 sequence (looked up): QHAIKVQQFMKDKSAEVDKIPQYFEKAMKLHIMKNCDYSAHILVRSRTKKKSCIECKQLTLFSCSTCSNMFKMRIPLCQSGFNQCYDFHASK
Description: pull-down; biotin-tagged histone peptides (1 ug) immobilised on streptavidin Dynabeads, 1 ug MBP-Tpb2p-CRD added, overnight at 4°C; 10 mM Tris pH 7.5, 0.1 mM ZnSO4, 0.05% NP40, 250 mM NaCl; western blot with anti-MBP. As to conditions: both partners purified.
With B1, the binding result was “binds”. Turning to B2, the binding result is listed as “binds”. For the molecule B3, the binding result was “binds”. With B4, the binding result was “binds”.

Regarding B5, the binding result is “binds”.

These data come from article PMC3861120, “A Domesticated PiggyBac Transposase Interacts with Heterochromatin and Catalyzes Reproducible DNA Elimination in Tetrahymena” (PLoS Genetics, 2013).
